{"source": "patent US20090092614A1", "key": {"[1]": {"target": "human IGF-1R(1-903)-Fc (human) (UniProt P08069)", "sequence (P08069 31-933)": "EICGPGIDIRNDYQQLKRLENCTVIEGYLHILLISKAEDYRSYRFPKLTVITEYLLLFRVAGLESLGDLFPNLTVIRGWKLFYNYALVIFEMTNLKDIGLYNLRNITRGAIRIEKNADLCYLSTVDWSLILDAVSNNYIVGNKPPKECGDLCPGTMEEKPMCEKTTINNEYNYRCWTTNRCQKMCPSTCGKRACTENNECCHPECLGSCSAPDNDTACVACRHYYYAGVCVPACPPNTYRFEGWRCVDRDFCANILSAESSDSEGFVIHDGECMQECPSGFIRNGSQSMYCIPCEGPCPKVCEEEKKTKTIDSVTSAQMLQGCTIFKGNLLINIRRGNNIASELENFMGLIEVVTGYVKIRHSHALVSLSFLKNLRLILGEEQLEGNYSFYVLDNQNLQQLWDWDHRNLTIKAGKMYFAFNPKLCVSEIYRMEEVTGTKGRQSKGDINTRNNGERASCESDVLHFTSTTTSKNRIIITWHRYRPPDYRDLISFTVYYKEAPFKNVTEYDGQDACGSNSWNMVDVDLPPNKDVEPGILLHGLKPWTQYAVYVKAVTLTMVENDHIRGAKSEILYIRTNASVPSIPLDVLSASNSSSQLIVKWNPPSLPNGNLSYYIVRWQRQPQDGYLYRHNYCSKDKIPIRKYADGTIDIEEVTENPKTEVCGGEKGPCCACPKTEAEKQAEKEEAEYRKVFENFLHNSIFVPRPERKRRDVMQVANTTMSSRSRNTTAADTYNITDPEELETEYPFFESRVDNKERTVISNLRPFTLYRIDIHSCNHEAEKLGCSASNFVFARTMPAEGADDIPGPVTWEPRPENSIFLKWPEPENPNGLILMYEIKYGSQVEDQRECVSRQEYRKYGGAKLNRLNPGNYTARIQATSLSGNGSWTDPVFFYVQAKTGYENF", "experiment": "blocking ELISA, competitor 320 nM IGF-1"}, "[2]": {"target": "human IGF-1R(1-903)-Fc (human) (UniProt P08069)", "experiment": "competition ELISA: biotinylated hIGF-1R-Fc on streptavidin plate, antibody titrated in 320 nM human IGF-1 His (blocked ligand), anti-His-HRP detection"}, "[3]": {"target": "human IGF-1R(1-903)-Fc (human) (UniProt P08069)", "experiment": "blocking ELISA, competitor 640 nM IGF-2"}}}
{"substance": "αIR3 (antibody)", "values": [{"measurement": "% IGF-1 inhibition upon antibody saturation", "setting": "[1]", "result": 23, "unit": "%"}, {"measurement": "IC50 (read off the curve)", "setting": "[2]", "result": 4, "unit": "nM"}, {"measurement": "% IGF-2 inhibition upon antibody saturation", "setting": "[3]", "result": 60, "unit": "%"}]}
